{
  "source": "paper PMC2764455",
  "key": {"bPrP peptide 1": {"biological_target": "T1, bPrP peptide 1 (bovine, UniProt P10279 25-36)", "T1 chain": "KKRPKPGGGWNT", "assay": "microchip electrophoresis"}, "bPrP peptide 16": {"biological_target": "T2, bPrP peptide 16 (bovine, UniProt P10279 108-119)", "T2 chain": "GQWNKPSKPKTN", "assay": "microchip electrophoresis"}},
  "data": [
    {"binder": "GGAGGAGGAGGA (structured_RNA)", "note": "[R12]", "values": [
      {"measurement": "binding result", "setting": "bPrP peptide 1", "value": "binds"},
      {"measurement": "binding result", "setting": "bPrP peptide 16", "value": "binds"}
    ]}
  ]
}
